For this series, the target named is T1, BstYI NN1 (K133N/S172N) (Bacillus stearothermophilus, K133N,S172N).
T1 chain: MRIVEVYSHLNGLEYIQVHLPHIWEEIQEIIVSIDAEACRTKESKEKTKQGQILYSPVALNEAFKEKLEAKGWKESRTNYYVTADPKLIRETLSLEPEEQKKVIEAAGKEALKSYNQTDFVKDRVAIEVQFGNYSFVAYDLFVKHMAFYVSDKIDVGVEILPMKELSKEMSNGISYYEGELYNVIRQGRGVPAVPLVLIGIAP
Put plainly: cleavage_in_vitro; 60 C. As to conditions: label: radiolabel.

B1: AGATCT site, 60 bp substrate (dsDNA)
DNA 1: AGATCT
DNA 2: AGATCT
As to B1, the binding signal is 7 fold preference over AGATCC/GGATCT.

The values above are taken from patent US20050164186, “Alteration of restriction endonuclease specificity by genetic selection” (published 2005).
